Molecular target: T1, FLAG-RhoGDI-γ (immobilized) (UniProt Q99819 1-225)
T1 construct: RhoGDIγ, full-length cDNA NM_001176 inserted into pFLAG-CMV2
T1 sequence (looked up): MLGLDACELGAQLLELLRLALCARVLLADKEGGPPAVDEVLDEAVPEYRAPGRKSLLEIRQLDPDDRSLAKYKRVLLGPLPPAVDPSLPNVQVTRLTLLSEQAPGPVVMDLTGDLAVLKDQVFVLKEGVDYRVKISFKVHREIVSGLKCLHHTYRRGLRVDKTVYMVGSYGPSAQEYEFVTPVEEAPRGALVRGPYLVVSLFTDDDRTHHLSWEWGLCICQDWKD
Assay: pull-down; competition assay: purified GST-RhoH and RhoA incubated with immobilized FLAG-RhoGDI-γ for 2 h; increasing doses of RhoH
Settings: both partners purified

binding result: binds
B1: GST-RhoH (natural protein, UniProt Q15669 1-191, looked up)
chain: MLSSIKCVLVGDSAVGKTSLLVRFTSETFPEAYKPTVYENTGVDVFMDGIQISLGLWDTAGNDAFRSIRPLSYQQADVVLMCYSVANHNSFLNLKNKWIGEIRSNLPCTPVLVVATQTDQREMGPHRASCVNAMEGKKLAQDVRAKGYLECSALSNRGVQQVFECAVRTAVNQARRRNRRRLFSINECKIF
notes: RhoH; the only GST vector named is pEBG-RhoH, made by inserting full-length cDNAs (RhoH: NM_001278369); also called GST-tagged RhoH; source: E. coli DH5α, IPTG induction, purified (glutathione-Sepharose, eluted with reduced glutathione)
